From patent US20070212686A1 (WHITEHEAD INSTITUTE FOR BIOMEDICAL RESEARCH, published 2007) come the findings set out here.

The chains are these.
T1: bacterial-expressed 3'Flag-Acrp30 (full length) (murine, UniProt Q60994 18-247)
T1 construct: The bacterial construct is not described; also called Full Length Acrp; bacterial expressed Flag-tagged full-length
T1 sequence: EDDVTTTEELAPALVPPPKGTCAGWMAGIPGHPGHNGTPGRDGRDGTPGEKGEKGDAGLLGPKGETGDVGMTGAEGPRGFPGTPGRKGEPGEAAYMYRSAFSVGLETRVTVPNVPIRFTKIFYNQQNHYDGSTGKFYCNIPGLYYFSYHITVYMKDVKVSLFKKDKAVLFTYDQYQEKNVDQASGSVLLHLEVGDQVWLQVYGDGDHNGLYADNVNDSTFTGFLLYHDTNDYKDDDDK

B1: HEK produced hexameric and high-molecular weight 5'FlagAcrp30 (ligand)
chain: DYKDDDDKEDDVTTTEELAPALVPPPKGTCAGWMAGIPGHPGHNGTPGRDGRDGTPGEKGEKGDAGLLGPKGETGDVGMTGAEGPRGFPGTPGRKGEPGEAAYMYRSAFSVGLETRVTVPNVPIRFTKIFYNQQNHYDGSTGKFYCNIPGLYYFSYHITVYMKDVKVSLFKKDKAVLFTYDQYQEKNVDQASGSVLLHLEVGDQVWLQVYGDGDHNGLYADNVNDSTFTGFLLYHDTN
notes: Pool of hexamers (6 chains) and HMW species (more than 6 chains), about 50% pure, made by ammonium sulfate precipitation and anion exchange; also called HEX & HMW; hexameric and HMW 5'Flag-Acrp30
B2: murine T-cadherin (full-length), over-expressed on cells (receptor)
chain: SIVVSPILIPENQRQPFPRDVGKVVDSDRPEGSKFRLTGKGVDQDPKGTFRINENTGSVSVTRTLDRETIATYQLYVETTDASGKTLEGPVPLEVIVIDQNDNRPIFREGPYIGHVMEGSPTGTTVMRMTAFDADDPATDNALWRYNIRQQTPDKPSPNMFYIDPEKGDIVTVVSPALLDRETLENPKYELIIEAQDMAGLDVGLTGTATATIVIDDKNDHSPKFTKKEFQARVEEGAVGVIVNLTVEDKDDPTTGAWRAAYTIINGNPGQSFEIHTNPQTNEGMLSVVKPLDYEISAFHTLLIKVENEDPLVPDVSYGPSSTATVHITVLDVNEGPVFYPDPMMVTKQENISVGSVLLTVNATDPDSLQHQTIRYSIYKDPAGWLSINPINGTVDTTAVLDRESPFVHNSVYTALFLAIDSGNPPATGTGTLLITLEDINDNAPVIYPTVAEVCDDARNLSVVILGASDKDLHPNTDPFKFEIHKQTVPDKVWKISKINNTHALVSLLQNLNKANYNLPIMVTDSGKPPMTNITDLKVQVCSCKNSKVDCNGAG
modifications: GPI anchor at the C-terminus (said of T-cadherin in general in the background)
notes: Expressed from the full-length cDNA in CHO, CHO-ER and Ba/F3 cells; also called pCDNA-Tcad; pBI-GFP-Tcad

Assay [1] has as its target B2. The assay is described as follows: cell ELISA on CHO-T-cadherin cells, anti-Flag M2 detection; concentration as trimer equivalents. How it is done:
(§1) CHO-ER cell lines infected with the bicistronic retroviral construct pBI-GFP-Tcad (referred to as CHO-T-cadherin) and control cells infected with pBI-GFP (referred to as CHO-GFP) were each grown in 96 well plates. One day after plating (1.5×10⁴/well), the cells were incubated in serum-free media for one hour, placed at 4° C. for thirty minutes, and blocked in PBS++ containing 4% dried milk for thirty minutes. Bacterial expressed Flag-tagged globular-Acrp30 bacterial expressed Flag-tagged full-length, or purified trimeric or hexameric and HMW 5′Flag-Acrp30 produced in HEK cells were incubated with the cells for one hour in blocking buffer at the indicated concentrations. The HEK expressed polypeptides were produced and purified by ammonium sulfate precipitation and anion-exchange chromatography. Pools containing the trimeric or a combination of hexamer and HMW 5′Flag-Acrp30 were identified by native gel electrophoresis and immunoblotting with a Flag antibody. The purity of these preparations was judged to be approximately 50% by Coomassie PAGE analysis. Protein concentration was determined by BCA assay (Pierce). The concentration of purified bacterial expressed proteins was determined by the absorbance at 280 nm and the calculated extinction coefficient derived from the primary amino acid sequence (Protean; DNAStar). […] The absorbance at 450 nm was measured with a plate reader.

The target of assay [2] is T1, bacterial-expressed 3'Flag-Acrp30 (full …). The assay is described as follows: cell ELISA on CHO-T-cadherin cells, anti-Flag M2 detection. How it is done: as §1

Consider B1, for which, in assay [1], the 50% effective concentration (EC50) was 25 to 50 nM.

On to B2, for which the binding result in assay [2] is recorded as “no binding”.
